# Assay results as given in publication PMC10299155, “Single-Molecule Analysis of the Improved Variants of the G-Quadruplex Recognition Protein G4P”.
# T1: 2FJG4P (artificial (motif derived from human FANCJ))
# T1 sequence: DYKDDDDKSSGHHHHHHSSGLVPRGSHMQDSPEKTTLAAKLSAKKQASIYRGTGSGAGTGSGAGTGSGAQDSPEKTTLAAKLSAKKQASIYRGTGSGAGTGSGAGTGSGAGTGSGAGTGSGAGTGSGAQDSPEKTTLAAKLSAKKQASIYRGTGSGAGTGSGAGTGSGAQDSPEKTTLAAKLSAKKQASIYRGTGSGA
# T2: FJG4P (artificial (motif derived from human FANCJ))
# T2 sequence: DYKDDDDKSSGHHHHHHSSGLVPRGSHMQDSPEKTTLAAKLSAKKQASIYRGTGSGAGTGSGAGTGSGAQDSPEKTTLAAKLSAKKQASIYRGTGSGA
# T3: G4P (artificial (RSM derived from human RHAU/DHX36))
# T3 sequence: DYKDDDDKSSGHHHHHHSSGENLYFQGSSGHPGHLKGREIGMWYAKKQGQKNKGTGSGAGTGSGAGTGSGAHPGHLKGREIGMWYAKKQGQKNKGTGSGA
# T4: 2G4P (artificial (RSM derived from human …))
# T4 chain: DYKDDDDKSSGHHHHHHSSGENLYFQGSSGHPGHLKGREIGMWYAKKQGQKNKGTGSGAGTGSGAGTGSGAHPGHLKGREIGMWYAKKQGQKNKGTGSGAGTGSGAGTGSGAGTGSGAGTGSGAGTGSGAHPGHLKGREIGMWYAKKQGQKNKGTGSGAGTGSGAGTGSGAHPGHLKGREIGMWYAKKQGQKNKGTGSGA
# T5: G4P (artificial (RSM derived from human …))
# T5 chain: T3 sequence
# T6: FJG4P (artificial (motif derived from human …))
# T6 chain: T2 sequence
# T7: 2FJG4P (artificial (motif derived from human …))
# T7 chain: T1 sequence
# B1: 2hTelG4 (mass photometry) (structured_DNA)
# DNA: TTAGGGTTAGGGTTAGGGTTTAGGGTTAGGGTTAGGGTTAGGGTTAGGGTTTAGGGTTAGGG
# B2: c-MYCG4 (smTIRFM tethering) (mixed)
# DNA 1: TGGCGACGGCAGCGAGGCTGGGTGGGTAGGGTGGGTTT
# DNA 2: GCCTCGCTGCCGTCGCCA
# B3: hTelG4 (smTIRFM tethering) (mixed)
# DNA 1: TGGCGACGGCAGCGAGGCTTAGGGTTAGGGTTAGGGTTTAGGGTTAGGG
# DNA 2: GCCTCGCTGCCGTCGCCA
# Columns and labels:
# [1] = test system: T1, 2FJG4P (artificial (motif derived from human FANCJ)); experiment: smTIRFM (koff/kon); conditions: EMSA: DNA annealed in 200 mM Tris pH 7.4, 100 mM KCl, 1 mM EDTA; binding 10 min at 25 C, native PAGE; smTIRFM: 100 pM tethered DNA, 100-5000 pM protein, buffer …
# [2] = test system: T2, FJG4P (artificial (motif derived from human FANCJ)); experiment: smTIRFM (koff/kon); conditions: EMSA: DNA annealed in 200 mM Tris pH 7.4, 100 mM KCl, 1 mM EDTA; binding 10 min at 25 C, native PAGE; smTIRFM: 100 pM tethered DNA, 100-5000 pM protein, buffer …
# [3] = test system: T3, G4P (artificial (RSM derived from human RHAU/DHX36)); experiment: smTIRFM (koff/kon); conditions: EMSA: DNA annealed in 200 mM Tris pH 7.4, 100 mM KCl, 1 mM EDTA; binding 10 min at 25 C, native PAGE; smTIRFM: 100 pM tethered DNA, 100-5000 pM protein, buffer …
# 2G4P [4] = target: T4, 2G4P; experiment: EMSA; EMSA: DNA annealed in 200 mM Tris pH 7.4, 100 mM KCl, 1 mM EDTA; binding 10 min at 25 C, native PAGE; smTIRFM: 100 pM tethered DNA, 100-5000 pM protein, buffer; conditions: protein: recombinant, tags: N-terminal FLAG-6xHis
# G4P [5] = target: T5, G4P; experiment: as above; conditions: protein: recombinant, tags: N-terminal FLAG-6xHis
# FJG4P [6] = target: T6, FJG4P; experiment: EMSA; no detectable binding; EMSA: DNA annealed in 200 mM Tris pH 7.4, 100 mM KCl, 1 mM EDTA; binding 10 min at 25 C, native PAGE; smTIRFM: 100 pM tethered DNA, 100-5000 pM protein, buffer; conditions: protein: recombinant; tags: N-terminal FLAG-6xHis; label: 5' fluorescein; intramolecular G4, mixed topology
# 2FJG4P [7] = target: T7, 2FJG4P; experiment: mass photometry; higher molecular weight complexes; EMSA: DNA annealed in 200 mM Tris pH 7.4, 100 mM KCl, 1 mM EDTA; binding 10 min at 25 C, native PAGE; smTIRFM: 100 pM tethered DNA, 100-5000 pM protein, buffer; conditions: protein: recombinant; tags: N-terminal FLAG-6xHis; G4, mixed topology
# 2FJG4P [8] = target: T7, 2FJG4P; experiment: mass photometry; largest network size; EMSA: DNA annealed in 200 mM Tris pH 7.4, 100 mM KCl, 1 mM EDTA; binding 10 min at 25 C, native PAGE; smTIRFM: 100 pM tethered DNA, 100-5000 pM protein, buffer; conditions: protein: recombinant; tags: N-terminal FLAG-6xHis; two G4s, mixed topology
# 2G4P [9] = target: T4, 2G4P; experiment: mass photometry; higher molecular weight complexes; EMSA: DNA annealed in 200 mM Tris pH 7.4, 100 mM KCl, 1 mM EDTA; binding 10 min at 25 C, native PAGE; smTIRFM: 100 pM tethered DNA, 100-5000 pM protein, buffer; conditions: protein: recombinant; tags: N-terminal FLAG-6xHis; two G4s, mixed topology
# FJG4P [10] = target: T6, FJG4P; experiment: EMSA; EMSA: DNA annealed in 200 mM Tris pH 7.4, 100 mM KCl, 1 mM EDTA; binding 10 min at 25 C, native PAGE; smTIRFM: 100 pM tethered DNA, 100-5000 pM protein, buffer; conditions: protein: recombinant; tags: N-terminal FLAG-6xHis; label: 3' 6-FAM; intramolecular parallel G4
# 2FJG4P [11] = target: T7, 2FJG4P; experiment: as above; conditions: protein: recombinant; tags: N-terminal FLAG-6xHis; label: 3' 6-FAM; intramolecular parallel G4
# 2FJG4P [12] = target: T7, 2FJG4P; experiment: smTIRFM (koff/kon); kon 4.7e9 M-1 s-1, koff 1.0 s-1; EMSA: DNA annealed in 200 mM Tris pH 7.4, 100 mM KCl, 1 mM EDTA; binding 10 min at 25 C, native PAGE; smTIRFM: 100 pM tethered DNA, 100-5000 pM protein, buffer; conditions: protein: recombinant; tags: N-terminal FLAG-6xHis; label: 3' biotin on strand 2; 18 bp duplex with 3' ssDNA tail folded as parallel G4
# 2G4P [13] = target: T4, 2G4P; experiment: smTIRFM (koff/kon); kon 3.9e9 M-1 s-1, koff 0.62 s-1; EMSA: DNA annealed in 200 mM Tris pH 7.4, 100 mM KCl, 1 mM EDTA; binding 10 min at 25 C, native PAGE; smTIRFM: 100 pM tethered DNA, 100-5000 pM protein, buffer; conditions: protein: recombinant; tags: N-terminal FLAG-6xHis; label: 3' biotin on strand 2; 18 bp duplex with 3' ssDNA tail folded as parallel G4
# G4P [14] = target: T5, G4P; experiment: smTIRFM (koff/kon); kon 2.16e9 M-1 s-1, koff 0.61 s-1; EMSA: DNA annealed in 200 mM Tris pH 7.4, 100 mM KCl, 1 mM EDTA; binding 10 min at 25 C, native PAGE; smTIRFM: 100 pM tethered DNA, 100-5000 pM protein, buffer; conditions: protein: recombinant; tags: N-terminal FLAG-6xHis; label: 3' biotin on strand 2; 18 bp duplex with 3' ssDNA tail folded as parallel G4
# FJG4P [15] = target: T6, FJG4P; experiment: smTIRFM (koff/kon); kon 3.45e9 M-1 s-1, koff 0.94 s-1; EMSA: DNA annealed in 200 mM Tris pH 7.4, 100 mM KCl, 1 mM EDTA; binding 10 min at 25 C, native PAGE; smTIRFM: 100 pM tethered DNA, 100-5000 pM protein, buffer; conditions: protein: recombinant; tags: N-terminal FLAG-6xHis; label: 3' biotin on strand 2; 18 bp duplex with 3' ssDNA tail folded as parallel G4
# FJG4P [16] = target: T6, FJG4P; experiment: smTIRFM (koff/kon); kon 0.01e9 M-1 s-1, koff 0.33 s-1; EMSA: DNA annealed in 200 mM Tris pH 7.4, 100 mM KCl, 1 mM EDTA; binding 10 min at 25 C, native PAGE; smTIRFM: 100 pM tethered DNA, 100-5000 pM protein, buffer; conditions: protein: recombinant; tags: N-terminal FLAG-6xHis; label: 3' biotin on strand 2; 18 bp duplex with 3' ssDNA tail folded as G4, mixed topology
# G4P [17] = target: T5, G4P; experiment: smTIRFM (koff/kon); kon 0.43e9 M-1 s-1, koff 0.67 s-1; EMSA: DNA annealed in 200 mM Tris pH 7.4, 100 mM KCl, 1 mM EDTA; binding 10 min at 25 C, native PAGE; smTIRFM: 100 pM tethered DNA, 100-5000 pM protein, buffer; conditions: protein: recombinant; tags: N-terminal FLAG-6xHis; label: 3' biotin on strand 2; 18 bp duplex with 3' ssDNA tail folded as G4, mixed topology
# 2FJG4P [18] = target: T7, 2FJG4P; experiment: smTIRFM (koff/kon); kon 0.0339e9 M-1 s-1, koff 0.4 s-1; EMSA: DNA annealed in 200 mM Tris pH 7.4, 100 mM KCl, 1 mM EDTA; binding 10 min at 25 C, native PAGE; smTIRFM: 100 pM tethered DNA, 100-5000 pM protein, buffer; conditions: protein: recombinant; tags: N-terminal FLAG-6xHis; label: 3' biotin on strand 2; 18 bp duplex with 3' ssDNA tail folded as G4, mixed topology
# 2G4P [19] = target: T4, 2G4P; experiment: smTIRFM (koff/kon); kon 0.0845e9 M-1 s-1, koff 0.29 s-1; EMSA: DNA annealed in 200 mM Tris pH 7.4, 100 mM KCl, 1 mM EDTA; binding 10 min at 25 C, native PAGE; smTIRFM: 100 pM tethered DNA, 100-5000 pM protein, buffer; conditions: protein: recombinant; tags: N-terminal FLAG-6xHis; label: 3' biotin on strand 2; 18 bp duplex with 3' ssDNA tail folded as G4, mixed topology
# [20] = label: 5' fluorescein, intramolecular G4, mixed topology
# [21] = label: 3' 6-FAM, intramolecular parallel G4
molecule,measurement,setting,value
TGGCGACGGCAGCGAGGCTTAGGGTTAGGGTTAGGGTTTAGGGTTAGGGTTAGGGTTAGGGTTTAGGGTTAGGG / GCCTCGCTGCCGTCGCCA [2hTelG4 (smTIRFM tethering)],Kd,[1],4.6 nM
same,Kd,[2],14.5 nM
same,Kd,[3],1.9 nM
TTAGGGTTAGGGTTAGGGTTTAGGGTTAGGG (structured_DNA) [hTelG4 (EMSA)],Kd,2G4P [4]; [20],86.2 ± 6 nM
same,Kd,G4P [5]; [20],558 ± 157 nM
same,binding result,FJG4P [6],no binding
TTAGGGTTAGGGTTAGGGTTTAGGGTTAGGG (structured_DNA) [hTelG4 (mass photometry)],binding result,2FJG4P [7],binds
B1,binding result,2FJG4P [8],binds
same,binding result,2G4P [9],binds
TGGGTGGGTAGGGTGGGTTT (structured_DNA) [c-MYCG4 (EMSA)],Kd,2G4P [4]; [21],27.7 ± 4 nM
same,Kd,FJG4P [10],110 ± 58.9 nM
same,Kd,G4P [5]; [21],84.1 ± 8 nM
same,Kd,2FJG4P [11],130 ± 63 nM
B2,Kd,2FJG4P [12],0.2 ± 0.01 nM
same,Kd,2G4P [13],0.16 ± 0.01 nM
same,Kd,G4P [14],0.22 ± 0.02 nM
same,Kd,FJG4P [15],0.27 ± 0.03 nM
B3,Kd,FJG4P [16],32.7 ± 4.8 nM
same,Kd,G4P [17],1.6 ± 0.1 nM
same,Kd,2FJG4P [18],10.7 ± 1.7 nM
same,Kd,2G4P [19],3.4 ± 0.3 nM
